According to the supplement of paper PMC12764529:
± gives the half width of the 95% confidence interval.

Experiments:
[1] = folding stability dG unfold (combined trypsin and chymotrypsin); higher = more stable
How it was run: (§1)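 Unfolding free energy was derived, per protease or combined, against a sequence-predicted unfolded-state K50 and a shared folded-state K50, starting from K50 inferred by Bayesian fitting of sequencing counts. Digestion with trypsin and chymotrypsin was carried out on designed mini-proteins under 80 residues without cysteine in a PA-tagged cDNA display construct. Only designs with AlphaFold2 dimer inter-PAE above 15 were kept.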

[2] = folding stability dG unfold from trypsin proteolysis; higher = more stable
How it was run: as §1

[3] = folding stability dG unfold from chymotrypsin proteolysis; higher = more stable
How it was run: as §1

Sequence	folding stability dG unfold [1] [kcal/mol]	folding stability dG unfold [2] [kcal/mol]	folding stability dG unfold [3] [kcal/mol]
SAGGSAGGSAGSMTVTLTITDPRNSATTTYTVPSSNYEEFLKANPEIEKNGWTVTVDTNGSAGGSAGGSAGG [r17_176_JUSTAS]	1.05 ± 0.13	1.15 ± 0.044	0.903 ± 0.15
SAGGSAGGNVILVETGPDGRARVLVFDPETGKVTEYEVPADDLDAIEAIAADKVDLVIVRPVGPSAGGSAGG [r6_639_TrMRF]	2.07 ± 0.11	1.75 ± 0.059	2.23 ± 0.028
SAGGVKEIEIPNGMRITDVDPPDGYWKIKIENPDNGKEVERPIPPGDKLKIPPNAPVTITEIEPYPPSAGGS [r16_123_TrROS]	< -1	-0.613 ± 0.27	-0.103 ± 0.48
SAGGSAGGDVVIIPEPSEEDKMIFTIVADGEEAPVVLTVEADNLADVVDFLKEHGLAAGHPDDGSAGGSAGG [r6_40_TrMRF]	0.679 ± 0.11	0.713 ± 0.065	0.637 ± 0.052
SAGPKIRTIIKEILKELNPDRPIEIHTHPDGFIIIVNPDDGRFIMIKIDPDGDIKISEVVPAEEMKKMMSAG [r5_852_TrROS]	1.49 ± 0.13	1.84 ± 0.033	1.17 ± 0.058
SAGGSAGGSAGGMSVTVSREKLPDGSYLVTVTTEVGGGPVTTPYRVPPSLSSAEEVVEKLSAGGSAGGSAGG [r7_75_JUSTAS]	-0.23 ± 0.2	-0.0439 ± 0.14	-0.659 ± 0.51
SAGGSAGGSAGGGSSGVSYGSVPIVIRDPSGNVVSTLTLRVYPDGTVVLEFPDGSLLLLSAGGSAGGSAGGS [r10_972_JUSTAS]	3.86 ± 0.087	3.38 ± 0.081	4.11 ± 0.045
SAGNRYEVNLTYMYPPDDPGLIEKIKKILRKLGWEIEKVKEQRMPDNKMRMVTHKIRIPGLPPEALKAFSAG [r14_956_TrROS]	1.31 ± 0.37	0.918 ± 0.16	1.27 ± 0.23
SAGGMFKVYEVTGKDAKVTIVEAPLPDGGKLVVVEVWEGGKPVKPFLVPVAELEEIAKAIGIKPEELKSAGG [r13_108_TrMRF]	1.58 ± 0.14	1.05 ± 0.027	1.9 ± 0.082
SAGKVEIVVTYPDGSKAVIDSDNPLVFTITDPDGNSSTISGTGFDEALLKIVELLKEKTGKPVEKVEIKSAG [r5_119_TrMRF]	1.76 ± 0.14	0.377 ± 0.098	2.168 ± 0.021
SAGGSAGGPKEKKWYVMVHITWRDDGKERPRHFMFKSPEQVIEALEEQLPPDNIEIDVAVFPYKSAGGSAGG [r6_114_TrROS]	2.33 ± 0.086	1.63 ± 0.034	2.95 ± 0.053
SMTITVKPENIEEVLAQIKALAAKHPKPVTITLEMSPEEVEKLRKALEDAGYKVEVDEKTGKVRIEIKVPSA [r9_600_TrROS_Hall]	3.63 ± 0.074	4.52 ± 0.22	3.05 ± 0.096
SAGGSAGGSAMTVRFGKPEELEKAEELAEEIAKAHPGKPIKVTVTKDPNNPDEYTVTITEESAGGSAGGSAG [r3_131_JUSTAS]	0.289 ± 0.14	-0.24 ± 0.16	0.544 ± 0.09
SAGGPPNYRIKIEYYPPNGMITVELPFDSPDELLDEIRELPGLPVEPDNDGTIIIMFPNHMIKIDIWKSAGG [r13_143_TrROS]	2.51 ± 0.11	2.18 ± 0.067	2.72 ± 0.056
SATAVVIKAEVIFPNNEKKEISVVIENLTEEEVEELAEELEKKIKEEAGIPDIEVKIKVETFAKDDPAFSAG [r14_207_TrMRF]	1.04 ± 0.3	0.438 ± 0.16	1.01 ± 0.09
SAGGSAGGSAGGAAPDDVKIEIEWDVGVMTMEMMNPGGQPHKMYMIMVSLKIEIEPNADSAGGSAGGSAGGS [r10_1212_TrROS]	4.95 ± 0.18	3.74 ± 0.25	5.09 ± 0.18
SAGGSAGGSAGGSMTVTLSREELLRLLGVPPGVPIPESVLAKIKSIETLPDGSVTVTIGSAGGSAGGSAGGS [r4_369_JUSTAS]	2.74 ± 0.11	1.98 ± 0.027	3.118 ± 0.027
